Publication PMC8804933 (The EMBO Journal, 2021)

Experiments:
[1] = molecular target: T1, ubiquitin (unlabeled, wild-type) (human, UniProt P0CG48 1-76); assay: NMR titration
[2] = molecular target: T1, ubiquitin (unlabeled, wild-type); assay: BLI

B1: 15N-labeled UBE2S UBC E139R/E143R (residues 1-156) (domain or fragment)
chain: MNSNVENLPPHIIRLVYKEVTTLTADPPDGIKVFPNEEDLTDLQVTIEGPEGTPYAGGLFRMKLLLGKDFPASPPKGYFLTKIFHPNVGANGEICVNVLKRDWTAELGIRHVLLTIKCLLIHPNPESALNEEAGRLLLRNYERYAARARLLTEIHG
binding result [1]: binds

B2: 15N-labeled UBE2S UBC E143R (residues 1-156) (domain or fragment)
chain: MNSNVENLPPHIIRLVYKEVTTLTADPPDGIKVFPNEEDLTDLQVTIEGPEGTPYAGGLFRMKLLLGKDFPASPPKGYFLTKIFHPNVGANGEICVNVLKRDWTAELGIRHVLLTIKCLLIHPNPESALNEEAGRLLLENYERYAARARLLTEIHG
binding result [1]: binds

B3: 15N-labeled UBE2S UBC E139R (residues 1-156) (domain or fragment)
chain: MNSNVENLPPHIIRLVYKEVTTLTADPPDGIKVFPNEEDLTDLQVTIEGPEGTPYAGGLFRMKLLLGKDFPASPPKGYFLTKIFHPNVGANGEICVNVLKRDWTAELGIRHVLLTIKCLLIHPNPESALNEEAGRLLLRNYEEYAARARLLTEIHG
binding result [1]: binds

B4: GST-UBE2R2 wild-type (enzyme)
chain: MAQQQMTSSQKALMLELKSLQEEPVEGFRITLVDESDLYNWEVAIFGPPNTLYEGGYFKAHIKFPIDYPYSPPTFRFLTKMWHPNIYENGDVCISILHPPVDDPQSGELPSERWNPTQNVRTILLSVISLLNEPNTFSPANVDASVMFRKWRDSKGKDKEYAEIIRKQVSATKAEAEKDGVKVPTTLAEYCIKTKVPSNDNSSDLLYDDLYDDDIDDEDEEEEDADCYDDDDSGNEES
Kd [2]: 650 µM

B5: GST-UBE2R2 R149E (enzyme)
chain: MAQQQMTSSQKALMLELKSLQEEPVEGFRITLVDESDLYNWEVAIFGPPNTLYEGGYFKAHIKFPIDYPYSPPTFRFLTKMWHPNIYENGDVCISILHPPVDDPQSGELPSERWNPTQNVRTILLSVISLLNEPNTFSPANVDASVMFEKWRDSKGKDKEYAEIIRKQVSATKAEAEKDGVKVPTTLAEYCIKTKVPSNDNSSDLLYDDLYDDDIDDEDEEEEDADCYDDDDSGNEES
Kd [2]: > 4000 µM
